From patent US9493781B2, “Synthetic brassica-derived chloroplast transit peptides” (DOW AGROSCIENCES LLC, priority 2012, dated 2016)

How the values were obtained:
Arabidopsis [1] = assay: dgt-28, dgt-32, dgt-33, dgt-3, dgt-7 transformed Arabidopsis (T1, T2, T3) response to postemergence glyphosate, % visual injury; type: in vivo, Arabidopsis thaliana; details: 14 days after application
From the text: Transgenic T1 Arabidopsis plants containing the dgt-28 transgene were sprayed with differing rates of glyphosate. Elevated rates were applied in this study to determine the relative levels of resistance (105, 420, 1,680 or 3,360 g ae/ha). A typical 1× usage rate of glyphosate that will control non-transformed Arabidopsis is 420 g ae/ha. […] The T1 Arabidopsis plants that were used in this study were variable copy number for the dgt-28 transgene. The low copy dgt-28 T1 Arabidopsis plants were self-pollinated and used to produce T2 plants.
Results of Glyphosate Selection of Transformed dgt-28 Arabidopsis Plants. The Arabidopsis T1 transformants were first selected from the background of untransformed seed using a glufosinate selection scheme. Three flats or 30,000 seed were analyzed for each T1 construct. The T1 plants selected above were molecularly characterized and representative plants with variable copy number were subsequently transplanted to individual pots and sprayed with various rates of commercial glyphosate as previously described. The response of these plants is presented in terms of % visual injury 2 weeks after treatment (WAT). […] An arithmetic mean and standard deviation is presented for each construct used for Arabidopsis transformation. The range in individual response is also indicated in the last column for each rate and transformation. Wild-type, non-transformed Arabidopsis (c.v. Columbia) served as a glyphosate sensitive control.
T2Arabidopsis Data. The second generation plants (T2) of selected T1 Arabidopsis events which contained low copy numbers of the dgt-28 transgene were further characterized for glyphosate tolerance. Glyphosate was applied as described previously. The response of the plants is presented in terms of % visual injury 2 weeks after treatment (WAT). […] An arithmetic mean and standard deviation are presented for each construct used for Arabidopsis transformation. The range in individual response is also indicated in the last column for each rate and transformation. Wild-type, non-transformed Arabidopsis (cv. Columbia) served as a glyphosate sensitive control. In the T2 generation hemizygous and homozygous plants were available for testing for each event and therefore were included for each rate of glyphosate tested. Hemizygous plants contain two different alleles at a locus as compared to homozygous plants which contain the same two alleles at a locus. Variability of response to glyphosate is expected in the T2 generation as a result of the difference in gene dosage for hemizygous as compared to homozygous plants. The variability in response to glyphosate is reflected in the standard deviation and range of response.
T3 Arabidopsis Data. The third generation plants (T3) of selected T2 Arabidopsis events which contained low copy numbers of the dgt-28 transgene were further characterized for glyphosate tolerance. […] Glyphosate was applied as described previously. The response of the plants is presented in terms of % visual injury 2 weeks after treatment (WAT). […] An arithmetic mean and standard deviation are presented for each construct used for Arabidopsis transformation. The range in individual response is also indicated in the last column for each rate and transformation. Wild-type, non-transformed Arabidopsis (cv. Columbia) served as a glyphosate-sensitive control.

Arabidopsis [2] = assay: Heritability progeny test of T1 families (T2 plants) with glufosinate, Arabidopsis; type: in vivo, Arabidopsis thaliana; details: progeny test of 100 T2 plants, glufosinate 200 g ae/ha
From the text: Heritability. Confirmed transgenic T1 Arabidopsis events were self-pollinated to produce T2 seed. These seed were progeny tested by applying Ignite™ herbicide containing glufosinate (200 g ae/ha) to 100 random T2 siblings. […] The T1 families (T2 plants) segregated in the anticipated 3 Resistant: 1 Sensitive model for a dominantly inherited single locus with Mendelian inheritance as determined by Chi square analysis (P>0.05). […] Seed were collected from 5 to 15 T2 individuals (T3 seed). Twenty-five T3 siblings from each of 3-4 randomly-selected T2 families were progeny tested as previously described.

[3] = Table 8, T1 Arabidopsis, 105 g ae/ha glyphosate
[4] = Table 8, T1 Arabidopsis, 420 g ae/ha glyphosate
[5] = Table 8, T1 Arabidopsis, 1680 g ae/ha glyphosate
[6] = Table 8, T1 Arabidopsis, 3360 g ae/ha glyphosate
[7] = Table 10, T1 Arabidopsis, 1,680 g ae/ha glyphosate
[8] = Table 12, T2 Arabidopsis, 1 copy, 420 g ae/ha glyphosate
[9] = Table 12, T2 Arabidopsis, 1 copy, 840 g ae/ha glyphosate
[10] = Table 12, T2 Arabidopsis, 1 copy, 1680 g ae/ha glyphosate
[11] = Table 12, T2 Arabidopsis, 1 copy, 3360 g ae/ha glyphosate

B1: pDAB105531: TraP8 v2 -- dgt-28 v5: binary construct TraP8 v2: dgt-28 v5 (SEQ ID NO:34) (nucleic acid)
DNA: ATGGCTCAATCTAGCAGAATCTGCCACGGTGTGCAGAACCCATGTGTGATCATTTCCAATCTCTCCAAATCCAACCAGAACAAATCTCCTTTCTCAGTCAGCCTCAAGACTCACCAGCAGCAGCGTCGTGCTTACCAGATATCTAGCTGGGGATTGAAGAAGTCAAACAACGGGTCCGTGATTCGTCCGGTTAAGGCAGCAAGAGGGATGCCAGCCTTGTCTTTACCTGGATCAAAGAGTATCACAGCTAGGGCACTCTTTCTTGCTGCTGCTGCTGATGGGGTTACTACTTTGGTGAGGCCATTGAGAAGTGACGACACAGAAGGATTCGCTGAGGGGTTAGTTCGTTTAGGCTATCGTGTAGGGAGGACACCCGATACTTGGCAAGTCGATGGCAGACCACAAGGACCAGCAGTGGCTGAGGCTGACGTCTACTGTAGAGACGGAGCAACCACCGCTAGATTCTTGCCAACCTTAGCAGCTGCTGGTCACGGAACATACAGATTTGATGCTTCACCACAGATGAGGAGACGTCCTCTTTTGCCCTTAAGCAGAGCCTTGAGGGATTTGGGTGTCGATCTTAGACACGAAGAAGCTGAAGGTCATCACCCTCTGACTGTCCGTGCTGCTGGGGTTGAAGGAGGAGAGGTTACTTTGGATGCTGGTCAGTCAAGTCAGTATCTCACTGCCTTGTTGCTCCTTGGTCCCCTTACAAGACAAGGACTGAGGATAAGGGTTACTGATTTGGTGTCAGCACCATACGTGGAGATTACGCTTGCAATGATGAGGGCTTTCGGAGTTGAAGTGGCAAGGGAGGGAGATGTGTTCGTTGTTCCACCTGGTGGATATCGTGCAACTACGTATGCTATAGAACCCGACGCAAGTACTGCTTCTTACTTCTTCGCAGCTGCTGCTTTGACTCCTGGAGCTGAAGTGACTGTACCTGGGTTAGGCACGGGAGCACTTCAAGGAGATTTGGGATTTGTAGATGTCTTAAGGAGAATGGGAGCCGAGGTGTCCGTAGGAGCTGATGCAACCACTGTTAGAGGAACTGGTGAATTGCGTGGCCTTACAGCCAACATGAGAGACATAAGTGATACGATGCCGACCCTCGCTGCAATAGCACCCTTTGCTAGTGCTCCAGTTAGAATCGAGGATGTTGCCAACACTCGTGTCAAAGAATGTGACAGACTTGAGGCTTGTGCAGAGAACCTTAGGAGGTTGGGAGTAAGGGTTGCAACGGGTCCGGACTGGATTGAGATACACCCTGGTCCAGCTACTGGTGCTCAAGTCACAAGCTATGGTGATCACAGAATTGTGATGTCATTTGCAGTGACTGGACTTCGTGTGCCTGGGATCAGCTTCGACGACCCTGGCTGTGTTCGTAAGACTTTTCCTGGGTTTCACGAGGCTTTCGCAGAATTGAGGCGTGGCATTGGGAGCTGA
modifications: In-frame fusion of dgt-28 v5 and TraP8 v2
For B1, the “% Injury Ave” value (Arabidopsis [1]; [3]) was 10.8%, the “% Injury Range (%)” value (Arabidopsis [1]; [3]) was 0-25% and the “No. plants with 20-40% injury” value (Arabidopsis [1]; [3]) was 1. The “No. plants with <20% injury” value (Arabidopsis [1]; [3]) was 3, the “No. plants with >40% injury” value (Arabidopsis [1]; [3]) was 0 and the “% Injury Ave” value (Arabidopsis [1]; [4]) was 22.8%. The “% Injury Range (%)” value (Arabidopsis [1]; [4]) was 8-50%, the “No. plants with 20-40% injury” value (Arabidopsis [1]; [4]) was 0 and the “No. plants with <20% injury” value (Arabidopsis [1]; [4]) was 3. The “No. plants with >40% injury” value (Arabidopsis [1]; [4]) was 1, the “% Injury Ave” value (Arabidopsis [1]; [5]) was 5.3% and the “% Injury Range (%)” value (Arabidopsis [1]; [5]) was 0-8%. The “No. plants with 20-40% injury” value (Arabidopsis [1]; [5]) was 0, the “No. plants with <20% injury” value (Arabidopsis [1]; [5]) was 4 and the “No. plants with >40% injury” value (Arabidopsis [1]; [5]) was 0. The “% Injury Ave” value (Arabidopsis [1]; [6]) was 29.3%, the “% Injury Range (%)” value (Arabidopsis [1]; [6]) was 22-35% and the “No. plants with 20-40% injury” value (Arabidopsis [1]; [6]) was 4. For the same molecule, the “No. plants with <20% injury” value (Arabidopsis [1]; [6]) was 0, the “No. plants with >40% injury” value (Arabidopsis [1]; [6]) was 0 and the “% Injury Ave” value (Arabidopsis [1]; [7]) was 5.3%. The “% Injury Range (%)” value (Arabidopsis [1]; [7]) was 0-8%, the “No. plants with 20-40% injury” value (Arabidopsis [1]; [7]) was 0 and the “No. plants with <20% injury” value (Arabidopsis [1]; [7]) was 4. For the same molecule, the “No. plants with >40% injury” value (Arabidopsis [1]; [7]) was 0, the “% Injury Ave” value (Arabidopsis [1]; [8]) was 0.5% and the “% Injury Range (%)” value (Arabidopsis [1]; [8]) was 0-2%. The “No. plants with 20-40% injury” value (Arabidopsis [1]; [8]) was 0, the “No. plants with <20% injury” value (Arabidopsis [1]; [8]) was 4 and the “No. plants with >40% injury” value (Arabidopsis [1]; [8]) was 0. For the same molecule, the “% Injury Ave” value (Arabidopsis [1]; [9]) was 1.3%, the “% Injury Range (%)” value (Arabidopsis [1]; [9]) was 0-5% and the “No. plants with 20-40% injury” value (Arabidopsis [1]; [9]) was 0. The “No. plants with <20% injury” value (Arabidopsis [1]; [9]) was 4, the “No. plants with >40% injury” value (Arabidopsis [1]; [9]) was 0 and the “% Injury Ave” value (Arabidopsis [1]; [10]) was 7.5%. The “% Injury Range (%)” value (Arabidopsis [1]; [10]) was 5-15%, the “No. plants with 20-40% injury” value (Arabidopsis [1]; [10]) was 0 and the “No. plants with <20% injury” value (Arabidopsis [1]; [10]) was 4. The “No. plants with >40% injury” value (Arabidopsis [1]; [10]) was 0, the “% Injury Ave” value (Arabidopsis [1]; [11]) was 7.5% and the “% Injury Range (%)” value (Arabidopsis [1]; [11]) was 0-15%. The “No. plants with 20-40% injury” value (Arabidopsis [1]; [11]) was 0, the “No. plants with <20% injury” value (Arabidopsis [1]; [11]) was 4 and the “No. plants with >40% injury” value (Arabidopsis [1]; [11]) was 0. The “T1 Families Tested Segregating at 1 Locus (%)” value (Arabidopsis [2]) was 100%.
